This is an account of results in patent US20100303790A1, “USE OF BILIVERDIN REDUCTASE (BVR) AND BVR PEPTIDE FRAGMENTS TO TREAT CORONARY DISORDERS” (UNIVERSITY OF ROCHESTER, priority 2009, published 2010).

The target of this test is T1, BVR (Rattus norvegicus, UniProt P46844).
T1 construct: Cardiomyocytes and heart tissue samples were lysed in buffer containing 100 mM sodium phosphate pH 7.4; from tissue; host or cells: isolated Langendorff-perfused rat heart, lysate
T1 sequence (P46844 3-295): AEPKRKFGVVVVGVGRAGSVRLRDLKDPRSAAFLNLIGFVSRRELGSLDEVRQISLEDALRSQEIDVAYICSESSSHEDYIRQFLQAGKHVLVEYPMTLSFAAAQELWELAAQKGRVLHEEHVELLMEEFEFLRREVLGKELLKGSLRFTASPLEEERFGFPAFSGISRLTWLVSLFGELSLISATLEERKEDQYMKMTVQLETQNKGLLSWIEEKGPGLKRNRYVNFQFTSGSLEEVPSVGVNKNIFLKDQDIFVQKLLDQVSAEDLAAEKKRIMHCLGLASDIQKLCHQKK
The test is described as follows: Langendorff perfused heart: BVR activity (biliverdin to bilirubin, pH 6.7). The class given is in vivo. An excerpt: In Vivo Experimental Langendorff Model: Male Sprague-Dawley rats weighing 250-300 g (Charles River, Boston, Mass.) were used in this study; the protocol is based on that described by Tompkins et al., “Mitochondrial Dysfunction in Cardiac Ischemia-Reperfusion Injury: ROS From Complex I, Without Inhibition,” Biochim Biophys Acta 1762:223-231 (2006), which is hereby incorporated by reference in its entirety, with minor modification. The rats were fed a standard rat chow and had water ad libitum. All experiments were approved by the University of Rochester Institutional Animal Care and Use Committee. Rats were given two subcutaneous injections of isoproterenol (ISO) (0.01 mg/kg), 6 hours apart, then anesthetized with freshly prepared Avertin (2,2,2-tribromoethanol, […] injected intraperitoneally), and treated with heparin (5000 U/kg), i.p., to protect the heart against microthrombi. The aorta was cannulated in situ with a 22-gauge needle filled with warm Krebs-Henseleit (KH) buffer. The heart was rapidly transferred (<10 s.) to a perfusion apparatus, and retrograde (Langendorff) perfusion begun with 37° C. […] Hemodynamics and heart rate were recorded by inserting a water-filled balloon connected to a transducer (Radnoti LLC, model no. 159904B) into the left ventricle. […]
Measurement of BVR Activity: Cardiomyocytes and heart tissue samples were lysed in buffer containing 100 mM sodium phosphate pH 7.4, 1% Nonidet-P-40, 10% glycerol, 0.2 mM dithiothoeitol, 10 mM NaF, protease inhibitor mixture (10 μg/ml aprotinin, 10 μg/ml leupeptin, 10 μg/ml pepstatin, and 0.1 mM phenylmethylsulfonyl fluoride). BVR activity was measured at pH 6.7 as described previously (Huang et al., “Detection of 10 Variants of Biliverdin Reductase in Rat Liver by Two-Dimensional Gel Electrophoresis,”J Biol Chem 264:7844-7849 (1989), which is hereby incorporated by reference in its entirety). The rate of conversion of biliverdin to bilirubin was determined as the increase in absorbance at 450 nm at 25° C. Specific activity is expressed as nanomoles of bilirubin/min/mg of protein. […]

“KKRILHC (biliverdin reductase peptide) [KKRILHC^281]”: the BVR activity result (peptide 25 μM, whether ISO was present or not) was “blocked the activity of BVR”.

For the substance “KYCCSRK (biliverdin reductase peptide) [KYCCSRK^296]”, the BVR activity entry (peptide 25 μM alone) is on record as “increased BVR activity”. The BVR reductase activity result (peptide 25 μM and 0.1 μM ISO) is listed as “significant activation”.
